In PMC1920236 (Nucleic Acids Research, 2007):
Substitutions are numbered along the chain they refer to. Numbers in names are those of the source. Like-named read-outs stand apart in the source and are kept apart here.

T1: IRF-3 5D (UniProt Q14653 1-427, S396D;S398D;S402D;T404D;S405D)
T1 sequence: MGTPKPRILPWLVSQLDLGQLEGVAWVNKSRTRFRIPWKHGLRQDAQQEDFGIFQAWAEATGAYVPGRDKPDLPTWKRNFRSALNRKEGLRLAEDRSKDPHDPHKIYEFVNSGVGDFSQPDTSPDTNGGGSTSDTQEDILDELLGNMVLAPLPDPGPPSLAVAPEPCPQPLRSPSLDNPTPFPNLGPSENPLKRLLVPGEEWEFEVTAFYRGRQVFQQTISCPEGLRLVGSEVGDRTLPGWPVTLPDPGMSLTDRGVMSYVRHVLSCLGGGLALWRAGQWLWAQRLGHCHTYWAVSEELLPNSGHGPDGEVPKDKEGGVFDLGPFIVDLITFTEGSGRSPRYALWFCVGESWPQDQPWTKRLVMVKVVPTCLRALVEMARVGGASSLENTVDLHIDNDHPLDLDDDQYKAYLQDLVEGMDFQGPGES

T2: IRF-3 2D (UniProt Q14653 1-427, S396D;S398D)
T2 sequence: T1 sequence with D402S, D404T, D405S

T3: IRF-3 WT (UniProt Q14653 1-427)
T3 sequence: T1 sequence with D396S, D398S, D402S, D404T, D405S

B1: IRF-3 5D phosphomimetic mutant (S396D, S398D, S402D, T404D and S405D) (natural protein)
chain: T1 sequence
B2: PRDIII-PRDI 26-bp (dsDNA)
DNA 1: GCGAACTGAAAGGGAGAAGTGAAAGT
DNA 2: ACTTTCACTTCTCCCTTTCAGTTCGC
B3: PRDI 13-bp (dsDNA)
DNA 1: GAGAAGTGAAAGT
DNA 2: ACTTTCACTTCTC

What was measured:
[1] = biological target: the molecule itself; experiment: native gel or EMSA
[2] = biological target: T1, IRF-3 5D; experiment: fluorescence anisotropy
[3] = biological target: T2, IRF-3 2D; experiment: fluorescence anisotropy
[4] = biological target: T3, IRF-3 WT; experiment: fluorescence anisotropy
[5] = biological target: T1, IRF-3 5D; experiment: fluorescence anisotropy; remark: listed apart in the source

Binder | stoichiometry N [1] | Kd [2] | Kd [3] | Kd [4] | Kd [5]
B1 | 2 |  |  |  | 
B2 |  | 5.8 ± 0.8 nM | 1300 ± 15 nM | 1230 ± 15 nM | 
B3 |  |  | 900 ± 15 nM | 800 ± 17 nM | 1200 ± 20 nM
